The source of these data is US6248715A, “Method of treating a urokinase-type plasminogen activator-mediated disorder” (Chiron Corporation, priority 1995, dated 2001).

Where no end group is shown, it is not given here. Fuc = fucose (fucosylation)

In experiment [1] the target is Baculovirus-derived recombinant human urokinase receptor, truncated soluble molecule, biotinylated (human) (UniProt Q03405). Description: phage panning on biotinylated soluble uPAR on streptavidin plates; eluted cfu as a percentage of input; control phage.
For experiment [2] the target is unchanged. Briefly: phage panning on biotinylated soluble uPAR on streptavidin plates; eluted cfu as a percentage of input; control phagemid.
For experiment [3] the target is unchanged. Description: phage panning on biotinylated soluble uPAR on streptavidin plates; eluted cfu as a percentage of input.
The subject of experiment [4] is SaOS-2 osteosarcoma cell line. The settings on record: cited from earlier work.
Another experiment has as its target uPAR (Homo sapiens, UniProt Q03405). The settings on record: cited from earlier work.
In experiment [5] the target is Baculovirus-derived recombinant human urokinase receptor, truncated soluble molecule, biotinylated (human, UniProt Q03405, biotinylated with NHS-biotin). Description: radio-receptor competition assay: 125I-ATF tracer on biotinylated soluble uPAR immobilised on streptavidin plates. On the procedure:
Baculovirus-derived recombinant human urokinase receptor was expressed as a truncated, soluble molecule as described previously for mouse L-cells (Masucci et al., *J Biol Chem* (1991) 266:8655). The purified receptor was biotinylated with NHS-biotin, and immobilized at 1 μg/mL in PBS/0.1% BSA on streptavidin coated 96-well plates. Human uPA ATF (residues 1–135, obtained from M. Shuman, University of California, San Francisco) was iodinated using the Iodogen method (Pierce), and used as tracer. The ^125I-ATF was incubated at 100–500 pM with increasing amounts of huPA_1-48 in triplicate (100 pM-1 μM) for 2 hours at room temperature in 0.1% BSA/PBS in a total volume of 200 μL. The plates were then washed 3 times with PBS/BSA, and the remaining bound radioactivity determined.

Sequence of uPAR (Q03405 23-335): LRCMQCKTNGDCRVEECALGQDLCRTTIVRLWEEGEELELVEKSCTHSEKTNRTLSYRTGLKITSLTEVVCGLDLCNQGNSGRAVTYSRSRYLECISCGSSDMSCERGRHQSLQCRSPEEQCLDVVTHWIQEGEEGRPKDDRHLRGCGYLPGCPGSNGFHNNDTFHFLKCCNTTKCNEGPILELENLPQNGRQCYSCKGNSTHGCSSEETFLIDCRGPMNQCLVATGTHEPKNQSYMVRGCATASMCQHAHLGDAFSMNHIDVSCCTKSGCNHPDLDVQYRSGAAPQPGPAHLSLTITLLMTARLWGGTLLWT

With “LP67 control phage (ampicillin-resistant M13)”, the % Yield (+uPAR) in experiment [1] was 0.0099%.

For “Phagemid pGMEGF displaying M1-FLAG-EGF-medium long pIII (from UniProt P01133)”, the % Yield (+uPAR) in experiment [2] is 0.0012%. In the case of “Phagemid pHM1a displaying M1-FLAG-UPAELD-short pIII (M1Flag-uPA1-48) (from UniProt P00749)”, the % Yield (+uPAR) in experiment [3] stood at 0.094%. Same read-out and setting: the figure for “Phagemid pHM3a displaying Glu-tag-UPAELD-short pIII (Glutag-uPA1-48) (from UniProt P00749)” is 0.08%.

“fucosylated EGF-like domain: fucosylated EGF-like domain (uPA4-43, produced by cleavage from pro-uPA) (LHQVPSNCDCLNGGT(Fuc)CVSNKYFSNIHWCNCPKKFGGQHCE; cysteine pairing not given here; UniProt P00749 24-63, looked up, fragment)”: the mitogenic activity entry in experiment [4] is listed as “mitogenic”. Turning to “uPA12-32: the critical domain alone, residues 12-32 of uPA (Appella et al.) (DCLNGGTCVSNKYFSNIHWCN; UniProt P00749 32-52, looked up, fragment)”, the “affinity relative to intact ATF (fold less)” value with uPAR (compared with intact ATF) is reported as “about 100 fold”. In addition, the Kd in the experiment with uPAR (critical domain alone, read-out: affinity for uPAR) is 40 nM.

B1: huPA1-48 (residues 1-48 of mature human urokinase-type plasminogen activator, non-fucosylated, secreted from yeast) (ligand)
chain: SNELHQVPSNCDCLNGGTCVSNKYFSNIHWCNCPKKFGGQHCEIDKSK
modifications: ends and bridges not checked; cysteine pairing not given here
For B1, the Kd in experiment [5] worked out at 0.3 nM.
